Tested on: Escherichia coli TOP10
Experiment: shrunken log2 fold change of peptide-encoding DNA abundance (4.5 h post-induction vs induction); higher = less antimicrobial activity (less host growth inhibition)
Settings: time post-induction: 4.5 h; library: site-saturation at positions 5, 18, 19, 20
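Further: peptides expressed intracellularly from a pBAD plasmid library in pooled LB shake-flask culture, induced with 0.3% L-arabinose, DNA abundance read by NGS, three biological replicates, DESeq2 with apeglm shrinkage.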

In order of rising “shrunken log2 fold change” value:
1. RRIRLRPPRLPRPRPRPGNRPRP  -1.09
2. RRIRVRPPRLPRPRPRPFVCPRP  -0.744
3. RRIRFRPPRLPRPRPRPLTVPRP  -0.73
4. RRIRYRPPRLPRPRPRPAQHPRP  -0.515
5. RRIRYRPPRLPRPRPRPHLLPRP  -0.515
6. RRIRLRPPRLPRPRPRPQTNPRP  -0.497
7. RRIRERPPRLPRPRPRPPMVPRP  -0.45
8. RRIRTRPPRLPRPRPRPHFDPRP  -0.385
9. RRIRCRPPRLPRPRPRPFPFPRP  -0.353
10. RRIRFRPPRLPRPRPRPVCTPRP  -0.324
11. RRIRHRPPRLPRPRPRPPMKPRP  -0.278
12. RRIRCRPPRLPRPRPRPQKIPRP  -0.252
13. RRIRDRPPRLPRPRPRPNYKPRP  -0.241
14. RRIRFRPPRLPRPRPRPIQIPRP  -0.234
15. RRIRNRPPRLPRPRPRPIMPPRP  -0.225
16. RRIRYRPPRLPRPRPRPDTLPRP  -0.195
17. RRIRHRPPRLPRPRPRPAFHPRP  -0.152
18. RRIRIRPPRLPRPRPRPNGFPRP  -0.114
19. RRIRERPPRLPRPRPRPYQVPRP  -0.109
20. RRIRDRPPRLPRPRPRPPYCPRP  -0.0939
21. RRIRCRPPRLPRPRPRPGYKPRP  -0.0902
22. RRIRLRPPRLPRPRPRPAMFPRP  -0.0833
23. RRIRRRPPRLPRPRPRPWREPRP  -0.0799
24. RRIRYRPPRLPRPRPRPQRCPRP  -0.0766
25. RRIRSRPPRLPRPRPRPAHEPRP  -0.074
26. RRIRDRPPRLPRPRPRPDRIPRP  -0.0411
27. RRIRQRPPRLPRPRPRPHYCPRP  -0.0397
28. RRIRYRPPRLPRPRPRPWKQPRP  -0.0389
29. RRIRERPPRLPRPRPRPGYFPRP  -0.0348
30. RRIRCRPPRLPRPRPRPMTVPRP  -0.0302
31. RRIRTRPPRLPRPRPRPIEIPRP  -0.0171
32. RRIRHRPPRLPRPRPRPEYVPRP  -0.0134
33. RRIRTRPPRLPRPRPRPESLPRP  -0.00987
34. RRIRIRPPRLPRPRPRPENWPRP  -0.00191
35. RRIRVRPPRLPRPRPRPLGKPRP  0.0149
36. RRIRKRPPRLPRPRPRPRRLPRP  0.0159
37. RRIRPRPPRLPRPRPRPTTDPRP  0.0167
38. RRIRYRPPRLPRPRPRPHMFPRP  0.0171
39. RRIRRRPPRLPRPRPRPLMGPRP  0.018
40. RRIRSRPPRLPRPRPRPAMWPRP  0.0276
41. RRIRLRPPRLPRPRPRPNQQPRP  0.0291
42. RRIRIRPPRLPRPRPRPRWSPRP  0.0458
43. RRIRTRPPRLPRPRPRPKGPPRP  0.0618
44. RRIRPRPPRLPRPRPRPDPIPRP  0.0782
45. RRIRSRPPRLPRPRPRPTKSPRP  0.0789
46. RRIRDRPPRLPRPRPRPDQLPRP  0.0963
47. RRIRMRPPRLPRPRPRPMNLPRP  0.11
48. RRIRMRPPRLPRPRPRPYPRPRP  0.112
49. RRIRTRPPRLPRPRPRPFFPPRP  0.191
50. RRIRKRPPRLPRPRPRPIVNPRP  0.219
51. RRIRQRPPRLPRPRPRPATVPRP  0.239
52. RRIRLRPPRLPRPRPRPLAPPRP  0.274
53. RRIRGRPPRLPRPRPRPTEIPRP  0.284
54. RRIRMRPPRLPRPRPRPWPMPRP  0.304
55. RRIRHRPPRLPRPRPRPGSAPRP  0.323
56. RRIRVRPPRLPRPRPRPFGWPRP  0.372
57. RRIRWRPPRLPRPRPRPLMTPRP  0.47
58. RRIRGRPPRLPRPRPRPARGPRP  0.915
59. RRIRMRPPRLPRPRPRPGQSPRP  1.23
60. RRIRMRPPRLPRPRPRPEPWPRP  1.3
